Experimental data taken from patent publication US11161908.

Biological target: human BAFF-R-GFP fusion protein expressed on the surface of mouse fibroblast (L) cells, clone D2C (human) (UniProt Q96RJ3)
Assay: flow cytometry, recombinant BAFF at 0.5 ug/10^6 D2C L cells, detected with anti-BAFF-PE, no antibody; unstained cells: 0.0217

percent of cells in the BAFF-PE gate: 59.6%
Substance: recombinant BAFF ligand (from UniProt Q9Y275 134-285)
